According to doi:10.1101/2020.05.27.119388 (bioRxiv, 2020):

Molecular target: MYC-LRRK2 (leucine rich repeat kinase 2), wild type (human, UniProt Q5S007 1-2527)
Experiment: co-IP

MYC-LRRK2 (leucine rich repeat kinase 2), wild type, sequence (Q5S007 whole entry): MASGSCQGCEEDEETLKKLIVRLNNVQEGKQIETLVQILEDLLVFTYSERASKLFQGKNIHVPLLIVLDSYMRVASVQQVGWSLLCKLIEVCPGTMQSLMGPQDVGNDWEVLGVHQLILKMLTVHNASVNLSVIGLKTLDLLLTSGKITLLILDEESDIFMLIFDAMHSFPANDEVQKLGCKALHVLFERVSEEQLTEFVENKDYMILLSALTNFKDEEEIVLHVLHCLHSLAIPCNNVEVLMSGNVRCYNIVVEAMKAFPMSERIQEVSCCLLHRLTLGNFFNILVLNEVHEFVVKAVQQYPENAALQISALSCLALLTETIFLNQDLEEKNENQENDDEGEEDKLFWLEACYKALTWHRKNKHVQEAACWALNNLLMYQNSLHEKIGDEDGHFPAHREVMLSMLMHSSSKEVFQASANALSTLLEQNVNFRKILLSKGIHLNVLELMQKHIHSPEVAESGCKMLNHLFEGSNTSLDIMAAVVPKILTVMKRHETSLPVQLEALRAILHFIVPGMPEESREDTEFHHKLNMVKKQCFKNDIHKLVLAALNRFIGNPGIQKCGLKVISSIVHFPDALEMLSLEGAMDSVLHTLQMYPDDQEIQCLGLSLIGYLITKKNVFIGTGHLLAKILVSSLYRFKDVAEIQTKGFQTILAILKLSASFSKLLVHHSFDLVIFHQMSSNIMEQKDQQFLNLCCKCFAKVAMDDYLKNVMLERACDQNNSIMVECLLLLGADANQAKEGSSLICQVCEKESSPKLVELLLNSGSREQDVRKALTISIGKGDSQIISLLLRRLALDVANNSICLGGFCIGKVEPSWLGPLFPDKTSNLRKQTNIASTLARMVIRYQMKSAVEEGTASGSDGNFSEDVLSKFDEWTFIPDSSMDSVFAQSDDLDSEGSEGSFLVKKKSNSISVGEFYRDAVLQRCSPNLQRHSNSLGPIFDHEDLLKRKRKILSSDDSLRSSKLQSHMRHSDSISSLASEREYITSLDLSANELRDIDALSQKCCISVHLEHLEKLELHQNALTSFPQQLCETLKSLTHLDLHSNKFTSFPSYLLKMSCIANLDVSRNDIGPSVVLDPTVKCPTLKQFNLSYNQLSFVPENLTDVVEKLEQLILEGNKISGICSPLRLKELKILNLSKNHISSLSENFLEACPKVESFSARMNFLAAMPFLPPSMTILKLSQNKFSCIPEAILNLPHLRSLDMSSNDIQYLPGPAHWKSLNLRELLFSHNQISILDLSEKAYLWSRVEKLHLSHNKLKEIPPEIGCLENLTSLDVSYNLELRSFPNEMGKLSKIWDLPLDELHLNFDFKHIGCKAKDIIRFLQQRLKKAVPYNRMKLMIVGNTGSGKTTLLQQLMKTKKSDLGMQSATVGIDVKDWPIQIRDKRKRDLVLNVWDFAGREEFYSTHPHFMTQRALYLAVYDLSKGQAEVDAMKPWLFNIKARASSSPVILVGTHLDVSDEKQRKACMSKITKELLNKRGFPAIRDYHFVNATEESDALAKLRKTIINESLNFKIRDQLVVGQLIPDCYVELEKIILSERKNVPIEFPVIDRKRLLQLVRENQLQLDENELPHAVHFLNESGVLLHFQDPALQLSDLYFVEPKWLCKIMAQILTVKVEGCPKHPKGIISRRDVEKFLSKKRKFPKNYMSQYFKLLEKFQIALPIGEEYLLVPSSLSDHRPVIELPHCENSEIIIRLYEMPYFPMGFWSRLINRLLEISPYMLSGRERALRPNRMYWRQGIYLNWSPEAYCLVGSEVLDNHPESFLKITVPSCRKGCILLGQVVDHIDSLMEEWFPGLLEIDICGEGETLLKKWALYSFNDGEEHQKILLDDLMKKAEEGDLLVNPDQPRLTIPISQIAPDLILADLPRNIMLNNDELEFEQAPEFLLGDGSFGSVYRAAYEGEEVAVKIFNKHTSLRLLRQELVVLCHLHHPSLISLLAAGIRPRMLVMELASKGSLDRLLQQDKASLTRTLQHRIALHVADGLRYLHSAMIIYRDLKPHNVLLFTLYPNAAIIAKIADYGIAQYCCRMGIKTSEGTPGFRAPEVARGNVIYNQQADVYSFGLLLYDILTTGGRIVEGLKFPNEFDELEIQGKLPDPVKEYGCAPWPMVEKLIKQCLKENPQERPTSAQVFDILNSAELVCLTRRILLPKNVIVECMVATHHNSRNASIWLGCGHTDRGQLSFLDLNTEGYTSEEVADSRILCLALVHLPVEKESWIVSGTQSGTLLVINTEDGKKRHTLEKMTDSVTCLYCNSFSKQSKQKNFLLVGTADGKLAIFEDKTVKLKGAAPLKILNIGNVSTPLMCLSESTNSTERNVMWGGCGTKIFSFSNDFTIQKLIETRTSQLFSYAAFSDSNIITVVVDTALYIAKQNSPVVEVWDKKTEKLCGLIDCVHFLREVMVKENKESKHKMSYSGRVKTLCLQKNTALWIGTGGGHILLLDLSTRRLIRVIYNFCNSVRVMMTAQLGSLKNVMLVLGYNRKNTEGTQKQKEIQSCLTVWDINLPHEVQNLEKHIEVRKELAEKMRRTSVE

B1: GST-AP2M1, recombinant (natural protein)
chain: MIGGLFIYNHKGEVLISRVYRDDIGRNAVDAFRVNVIHARQQVRSPVTNIARTSFFHVKRSNIWLAAVTKQNVNAAMVFEFLYKMCDVMAAYFGKISEENIKNNFVLIYELLDEILDFGYPQNSETGALKTFITQQGIKSQHQTKEEQSQITSQVTGQIGWRREGIKYRRNELFLDVLESVNLLMSPQGQVLSAHVSGRVVMKSYLSGMPECKFGMNDKIVIEKQGKGTADETSKSGKQSIAIDDCTFHQCVRLSKFDSERSISFIPPDGEFELMRYRTTKDIILPFRVIPLVREVGRTKLEVKVVIKSNFKPSLLAQKIEVRIPTPLNTSGVQVICMKGKAKYKASENAIVWKIKRMAGMKESQISAEIELLPTNDKKKWARPPISMNFEVPFAPSGLKVRYLKVFEPKLNYSDHDVIKWVRYIGRSGIYETRC
binding result: binds
